Blank lines part the entries; values can stand above or below the molecule they belong to.
How the values were obtained:
[1] = target: canine IL-31RA ECD-10His (canine); assay: ELISA: IL-31RA ECD coated at 10 ug/mL, biotinylated IL-31 titrated 3-fold from 10 ug/mL, HRP-streptavidin
[2] = target: T1, cIL-22-His (canine IL-22 with a His Tag) (canine); assay: ELISA: cIL-22-His coated, Fc fusion titrated from 10 ug/mL, anti-dog IgG (Fc)-HRP
T1 construct: also called cILHIS
T1 chain: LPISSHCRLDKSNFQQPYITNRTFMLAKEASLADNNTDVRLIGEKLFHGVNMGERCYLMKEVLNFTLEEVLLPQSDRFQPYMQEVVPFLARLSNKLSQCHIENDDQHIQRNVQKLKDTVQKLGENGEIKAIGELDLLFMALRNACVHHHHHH

Sequence of canine IL-31RA ECD-10His (canine) (chain, as listed by the source limits assumed): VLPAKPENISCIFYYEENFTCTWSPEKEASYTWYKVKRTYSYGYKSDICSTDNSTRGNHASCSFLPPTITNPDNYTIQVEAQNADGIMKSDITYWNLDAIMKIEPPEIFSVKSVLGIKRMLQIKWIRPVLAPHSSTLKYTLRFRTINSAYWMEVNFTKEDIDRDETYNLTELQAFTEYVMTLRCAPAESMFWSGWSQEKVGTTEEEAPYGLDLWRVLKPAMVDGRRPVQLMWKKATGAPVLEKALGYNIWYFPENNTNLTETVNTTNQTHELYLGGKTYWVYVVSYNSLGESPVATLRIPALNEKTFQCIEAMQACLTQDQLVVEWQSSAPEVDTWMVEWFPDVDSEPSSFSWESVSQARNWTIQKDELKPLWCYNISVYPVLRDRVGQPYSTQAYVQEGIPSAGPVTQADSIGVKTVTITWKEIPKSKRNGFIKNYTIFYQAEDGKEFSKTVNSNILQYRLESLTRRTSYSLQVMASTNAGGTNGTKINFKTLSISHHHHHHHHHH

EC50 [1]: 0.368 µg/mL
Molecule: biotinylated canine IL-31 (ligand)

binding result [2]: binds
B1: canine IL-22RA1-FcB fusion protein (extracellular domain of canine IL-22RA1 with canine IgG-B Fc) (Fc fusion)
chain: AEDTSDLLQYVKFQSSNFENILTWDSGLESAPDVVYSVEYKTYGKKEWLAKEGCQRITRKSCNLTTETGNHTEHYYARVTAVSAGGRSATKMTDRFSSMQQTTIKPPDVTCIPKVRSIQMIVHPTSTPIHAEDGHRLTLEDIFQDLFYRLELQVNHTYQMHLGGKQRDYEFIGLSPDTEFLGTITISVPNFFKESAPYVCRVKTLPDRTWTGGGGSGGGGSPKRENGRVPRPPDCPKCPAPEMLGGPSVFIFPPKPKDTLLIARTPEVTCVVVALDPEDPEVQISWFVDGKQMQTAKTQPREEQFAGTYRVVSVLPIGHQDWLKGKQFTCKVNNKALPSPIERTISKARGQAHQPSVYVLPPSREELSKNTVSLTCLIKDFFPPDIDVEWQSNGQQEPESKYRTTPPQLDEDGSYFLYSKLSVDKSRWQRGDTFICAVMHEALHNHYTQESLSHSPG
notes: also called cIL-22RA1-Fc fusion protein; canine IL-22RA1-Fc fusion protein

binding result [2]: binds
B2: canine IL-22BP-FcB fusion protein (canine IL-22BP (IL-22RA2) with canine IgG-B Fc) (Fc fusion)
chain: TQSAYESLKPQRVHFQSRNFHNILHWQPGRACTSNGSVYFVQYKMYGQRQWKNKEDCWGILECFCDLTNETSDIQEPYYGRVRTTSAGIHSGWTMTQRFTPWWETKIDPPIINITQVNGSLLVILHAPSLPYRDQKGKNVSIENYYELLYRVFIINNSLEKEQKVYEGAHRIVEIGALAPHTGYCVVAEMYQPMLDRRSPRSEERCMELPGGGGSGGGGSPKRENGRVPRPPDCPKCPAPEMLGGPSVFIFPPKPKDTLLIARTPEVTCVVVALDPEDPEVQISWFVDGKQMQTAKTQPREEQFAGTYRVVSVLPIGHQDWLKGKQFTCKVNNKALPSPIERTISKARGQAHQPSVYVLPPSREELSKNTVSLTCLIKDFFPPDIDVEWQSNGQQEPESKYRTTPPQLDEDGSYFLYSKLSVDKSRWQRGDTFICAVMHEALHNHYTQESLSHSPG
notes: also called cIL-22BP-Fc fusion protein; canine IL-22BP-Fc fusion protein
